{
  "source": "patent US20230212222A1",
  "about": "(ANYGEN CO., LTD., priority 2020, published 2023)",
  "note": "Numbered stars: 1 amine (or outer) side, 2 acyl side, 3 side chain; on linkers, the order of the positions; unused ones are H or OH. Square brackets hold non-standard residues; d marks the D form. Ends that are not written are not given here. * marks the point of attachment. DAMP‑2 = His whose imidazole is a 1,3-bis(2-cyclohexylethyl)-2,3-dihydro-1H-imidazol-4-yl group, O=C([C@H](CC1=CN(CCC2CCCCC2)CN1CCC1CCCCC1)N[*:1])[*:2]; DAMP‑3 = His whose imidazole is a 1,3-diphenethyl-2,3-dihydro-1H-imidazol-4-yl group, O=C([C@H](CC1=CN(CCc2ccccc2)CN1CCc1ccccc1)N[*:1])[*:2]; 1,2‑diphenyl = His whose imidazole is a 1,2-diphenyl-1H-imidazol-4-yl group, O=C([C@H](Cc1cn(-c2ccccc2)c(-c2ccccc2)n1)N[*:1])[*:2]; tbm = (2'-(1H-tetrazol-5-yl)-[1,1'-biphenyl]-4-yl)methyl on the histidine imidazole nitrogen, c1ccc(-c2nn[nH]n2)c(-c2ccc(C*)cc2)c1; 2‑(4-tert-butyl)phenyl = His carrying a 2-(4-tert-butylphenyl) group on the imidazole (imidazole C2), CC(C)(C)c1ccc(*)cc1; DAMP‑5 = His whose imidazole is a 3-(2-cyclohexylethyl)-2,3-dihydro-1H-imidazol-4-yl group; thiophene = His carrying a thiophen-2-yl group on the imidazole (imidazole C2), c1csc(*)c1; 1‑phenyl = His whose imidazole is a 1-phenyl-1H-imidazol-4-yl group, c1ccc(*)cc1; 2‑phenyl = His whose imidazole is a 2-phenyl-1H-imidazol-4-yl group; 4‑methoxylbenzhydryl = COc1ccc(C(c2ccccc2)*)cc1; Biotin = O=C1N[C@H]2[C@H](CS[C@H]2CCCCC(=O)*)N1; dPhe(4-CF3) = N[C@H](Cc1ccc(C(F)(F)F)cc1)C(=O)O; Fm = 9H-fluoren-9-yl, c1ccc2c(c1)-c1ccccc1C2*; 1‑(4-tert-butyl)phenyl = CC(C)(C)c1ccc(*)cc1; dPhe(4-Cl) = N[C@H](Cc1ccc(Cl)cc1)C(=O)O; dPhe(4-Me) = Cc1ccc(C[C@@H](N)C(=O)O)cc1; Trt = c1ccc(C(c2ccccc2)(c2ccccc2)*)cc1; CH2(1-naphthyl) = c1ccc2c(C*)cccc2c1; Benzhydryl = c1ccc(C(c2ccccc2)*)cc1; 2‑cyclohexylethyl = C1CCC(CC*)CC1; Tos = Cc1ccc(S(=O)(=O)*)cc1; Octanoyl = CCCCCCCC(=O)*",
  "data": [
    {"molecular_target": "T1, GPR39 (G protein-coupled receptor 39) (Homo sapiens (Human), UniProt O43194 1-453)", "T1 sequence": "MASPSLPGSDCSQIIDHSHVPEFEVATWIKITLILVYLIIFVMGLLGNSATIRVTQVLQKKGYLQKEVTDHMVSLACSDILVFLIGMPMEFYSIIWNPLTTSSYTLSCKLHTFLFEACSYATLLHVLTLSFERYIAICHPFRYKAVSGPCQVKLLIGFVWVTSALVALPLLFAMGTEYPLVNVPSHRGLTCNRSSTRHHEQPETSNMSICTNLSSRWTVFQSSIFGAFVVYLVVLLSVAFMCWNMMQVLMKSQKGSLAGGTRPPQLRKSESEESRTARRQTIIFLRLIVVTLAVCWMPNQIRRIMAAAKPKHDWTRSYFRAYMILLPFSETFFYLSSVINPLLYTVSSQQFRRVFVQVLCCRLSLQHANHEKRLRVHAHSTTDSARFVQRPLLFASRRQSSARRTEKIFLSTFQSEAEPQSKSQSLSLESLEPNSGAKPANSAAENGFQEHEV", "assay": "cell-based or functional assay", "units": {"EC50 (luciferase reporter)": "nM"}, "values": [
      {"binder": "H(Trt)K(Octanoyl)FY", "note": "[HKFY-1]", "EC50 (luciferase reporter)": 150, "ECmax (-fold induction over basal)": "20.5 -fold induction over basal"},
      {"binder": "His(Benzhydryl)-Lys(Octanoyl)", "note": "[HKFY-79]", "EC50 (luciferase reporter)": 970, "ECmax (-fold induction over basal)": "11.2 -fold induction over basal"},
      {"binder": "H(Trt)K(Octanoyl)[dPhe(4-CF3)]Y", "note": "[HKFY-76]", "EC50 (luciferase reporter)": 7, "ECmax (-fold induction over basal)": "14.2 -fold induction over basal"},
      {"binder": "K(Octanoyl)H(Trt)FY", "note": "[HKFY-55]", "EC50 (luciferase reporter)": 2490, "ECmax (-fold induction over basal)": "16.8 -fold induction over basal"},
      {"binder": "H(DAMP‑5)K(Octanoyl)FY", "note": "[HKFY-7]", "EC50 (luciferase reporter)": 1560, "ECmax (-fold induction over basal)": "16 -fold induction over basal"},
      {"binder": "H(Tos)K(Octanoyl)[dPhe(4-Me)]Y", "note": "[HKFY-75]", "EC50 (luciferase reporter)": 1, "ECmax (-fold induction over basal)": "15.9 -fold induction over basal"},
      {"binder": "H(Trt)GSK(Octanoyl)FY", "note": "[HKFY-53]", "EC50 (luciferase reporter)": 340, "ECmax (-fold induction over basal)": "8 -fold induction over basal"},
      {"binder": "H(1,2‑diphenyl)K(Octanoyl)[dPhe(4-Me)]Y", "note": "[HKFY-59]", "EC50 (luciferase reporter)": 550, "ECmax (-fold induction over basal)": "6.76 -fold induction over basal"},
      {"binder": "Biotin-H(Benzhydryl)K(Octanoyl)[dPhe(4-Me)]Y", "note": "[HKFY-72]", "EC50 (luciferase reporter)": 11, "ECmax (-fold induction over basal)": "10.4 -fold induction over basal"},
      {"binder": "H(Trt)K(Octanoyl)LY", "note": "[HKFY-51]", "EC50 (luciferase reporter)": 120, "ECmax (-fold induction over basal)": "14.4 -fold induction over basal"},
      {"binder": "H(Benzhydryl)K(Octanoyl)[dPhe(4-Me)][Tyr(3-nitro)]", "note": "[HKFY-68]", "EC50 (luciferase reporter)": 13, "ECmax (-fold induction over basal)": "10.8 -fold induction over basal"},
      {"binder": "Biotin-H(Trt)K(Octanoyl)FY", "note": "[HKFY-2]", "EC50 (luciferase reporter)": 140, "ECmax (-fold induction over basal)": "15 -fold induction over basal"},
      {"binder": "H(CH2(1-naphthyl))K(Octanoyl)FY", "note": "[HKFY-10]", "EC50 (luciferase reporter)": 46500, "ECmax (-fold induction over basal)": "14 -fold induction over basal"},
      {"binder": "H(2‑(4-tert-butyl)phenyl)K(Octanoyl)[dPhe(4-Me)]Y", "note": "[HKFY-60]", "EC50 (luciferase reporter)": 190, "ECmax (-fold induction over basal)": "28.2 -fold induction over basal"},
      {"binder": "H(Trt)K(Octanoyl)FS", "note": "[HKFY-50]", "EC50 (luciferase reporter)": 700, "ECmax (-fold induction over basal)": "16.2 -fold induction over basal"},
      {"binder": "H(tbm)K(Octanoyl)FY (not fully specified (residue 3); printed as His(tbm)-Lys(caprylic)-d-Phe(4-CF3)-Tyr)", "note": "[HKFY-77]", "EC50 (luciferase reporter)": 7, "ECmax (-fold induction over basal)": "11.6 -fold induction over basal"},
      {"binder": "H(1‑(4-tert-butyl)phenyl)K(Octanoyl)[dPhe(4-Me)]Y", "note": "[HKFY-61]", "EC50 (luciferase reporter)": 20, "ECmax (-fold induction over basal)": "9.88 -fold induction over basal"},
      {"binder": "H(4‑methoxybenzhydryl)K(Octanoyl)[dPhe(4-Me)]Y", "note": "[HKFY-64]", "EC50 (luciferase reporter)": 7, "ECmax (-fold induction over basal)": "16 -fold induction over basal"},
      {"binder": "H(thiophene)K(Octanoyl)[dPhe(4-Me)]Y", "note": "[HKFY-63]", "EC50 (luciferase reporter)": 6, "ECmax (-fold induction over basal)": "13.5 -fold induction over basal"},
      {"binder": "H(Fm)K(Octanoyl)FY", "note": "[HKFY-18]", "EC50 (luciferase reporter)": 2290, "ECmax (-fold induction over basal)": "10 -fold induction over basal"},
      {"binder": "H(Trt)K(caproic)FYDQQARF", "note": "[HKFY-56]", "ECmax (-fold induction over basal)": "14.9 -fold induction over basal"},
      {"binder": "H(Benzhydryl)K(Octanoyl)[dPhe(4-Me)]Y-NH2", "note": "[HKFY-66]", "EC50 (luciferase reporter)": 11, "ECmax (-fold induction over basal)": "20.2 -fold induction over basal"},
      {"binder": "[dH](Benzhydryl)K(Octanoyl)[dPhe(4-Me)]Y", "note": "[HKFY-62]", "EC50 (luciferase reporter)": 830, "ECmax (-fold induction over basal)": "28.1 -fold induction over basal"},
      {"binder": "H(Benzhydryl)K(Octanoyl)[dPhe(4-Me)][Tyr(3-amino)]", "note": "[HKFY-70]", "EC50 (luciferase reporter)": 20, "ECmax (-fold induction over basal)": "10.1 -fold induction over basal"},
      {"binder": "H(Trt)K(Octanoyl)[dF]Y", "note": "[HKFY-12]", "EC50 (luciferase reporter)": 35, "ECmax (-fold induction over basal)": "20.7 -fold induction over basal"},
      {"binder": "H(DAMP‑3)K(Octanoyl)FY", "note": "[HKFY-6]", "EC50 (luciferase reporter)": 68400, "ECmax (-fold induction over basal)": "15 -fold induction over basal"},
      {"binder": "[dH](Trt)K(Octanoyl)[dPhe(4-Cl)][dY]", "note": "[HKFY-14]", "EC50 (luciferase reporter)": 20, "ECmax (-fold induction over basal)": "20.9 -fold induction over basal"},
      {"binder": "HK(Octanoyl)FY (not fully specified (residue 1))", "note": "[HKFY-9]", "EC50 (luciferase reporter)": 42700, "ECmax (-fold induction over basal)": "21 -fold induction over basal"},
      {"binder": "H(2‑cyclohexylethyl)K(Octanoyl)FY", "note": "[HKFY-11]", "EC50 (luciferase reporter)": 57800, "ECmax (-fold induction over basal)": "22 -fold induction over basal"},
      {"binder": "H(4‑hydroxybenzhydryl)K(Octanoyl)[dPhe(4-Me)]Y", "note": "[HKFY-65]", "EC50 (luciferase reporter)": 3, "ECmax (-fold induction over basal)": "18.3 -fold induction over basal"},
      {"binder": "H(Benzhydryl)K(Octanoyl)[dPhe(4-Me)][Tyr(3,5-nitro)]", "note": "[HKFY-69]", "EC50 (luciferase reporter)": 15, "ECmax (-fold induction over basal)": "12.2 -fold induction over basal"},
      {"binder": "H(3,3‑diphenylethyl)K(Octanoyl)FY", "note": "[HKFY-17]", "EC50 (luciferase reporter)": 8120, "ECmax (-fold induction over basal)": "20 -fold induction over basal"},
      {"binder": "H(2‑phenyl)K(Octanoyl)[dPhe(4-Me)]Y", "note": "[HKFY-57]", "EC50 (luciferase reporter)": 260, "ECmax (-fold induction over basal)": "8.5 -fold induction over basal"},
      {"binder": "H(Benzhydryl)K(Octanoyl)[dPhe(4-Me)][Tyr(3-chloro)]", "note": "[HKFY-67]", "EC50 (luciferase reporter)": 43, "ECmax (-fold induction over basal)": "10.2 -fold induction over basal"},
      {"binder": "Lys(Octanoyl)-Phe-Tyr", "note": "[HKFY-54]", "EC50 (luciferase reporter)": 25900, "ECmax (-fold induction over basal)": "7.8 -fold induction over basal"},
      {"binder": "H(4‑methyltrityl)K(Octanoyl)FY", "note": "[HKFY-5]", "EC50 (luciferase reporter)": 1840, "ECmax (-fold induction over basal)": "16 -fold induction over basal"},
      {"binder": "H(DAMP‑2)K(Octanoyl)FY", "note": "[HKFY-8]", "EC50 (luciferase reporter)": 33600, "ECmax (-fold induction over basal)": "17.3 -fold induction over basal"},
      {"binder": "H(Trt)FYDQQARF (not fully specified; printed as His(trt)-Phe-Tyr-Asp-Gln-Gln-Ala-Arg-Phe)", "note": "[HKFY-52]", "EC50 (luciferase reporter)": 56400, "ECmax (-fold induction over basal)": "15.5 -fold induction over basal"},
      {"binder": "H(phenethyl)K(Octanoyl)FY", "note": "[HKFY-19]", "EC50 (luciferase reporter)": 24600, "ECmax (-fold induction over basal)": "18 -fold induction over basal"},
      {"binder": "H(4‑methoxylbenzhydryl)K(Octanoyl)FY", "note": "[HKFY-20]", "EC50 (luciferase reporter)": 159000, "ECmax (-fold induction over basal)": "20.3 -fold induction over basal"},
      {"binder": "H(Trt)K(Octanoyl)[dPhe(4-Cl)]Y", "note": "[HKFY-13]", "EC50 (luciferase reporter)": 14, "ECmax (-fold induction over basal)": "25.7 -fold induction over basal"},
      {"binder": "H(Trt)[dK](Octanoyl)[dPhe(4-Cl)]Y", "note": "[HKFY-16]", "EC50 (luciferase reporter)": 240, "ECmax (-fold induction over basal)": "27.9 -fold induction over basal"},
      {"binder": "H(1‑phenyl)K(Octanoyl)[dPhe(4-Me)]Y", "note": "[HKFY-58]", "EC50 (luciferase reporter)": 20, "ECmax (-fold induction over basal)": "9.12 -fold induction over basal"},
      {"binder": "H(Trt)K(Octanoyl)[dPhe(4-Cl)][dY]", "note": "[HKFY-15]", "EC50 (luciferase reporter)": 98, "ECmax (-fold induction over basal)": "24.7 -fold induction over basal"}
    ]}
  ]
}
